In patent US20070212341A1, “Method for Preparing Active Kinases Containing Ph Domains” (priority 2004, published 2007):

Test system: histone 2B
Experiment: Kinase activity measurement (histone 2B phosphorylation, [33P]ATP flashplate)
Assay type: biochemical
Experimental: Another possibility of detecting the enzymic activity of Akt is that of incubating 100 ng of Akt, at 30° C. for 80 min, with 100 ng of histone 2B in a buffer composed of 50 mM Hepes (pH 7.5), 3 mM MgCl2 and 3 mM MnCl2, 3 μM sodium vanadate, 1 mM DTT, 1% DMSO, 100 nM ATP and 0.16 nM [^33P]-ATP. After stopping the reaction with phosphoric acid and washing with water, the incorporated cpm [counts per minute] are then determined, in a flashplate (NEN) in a Wallac Trilux measuring instrument, as a measure of the phosphorylation of the histone 2B. In this measuring instrument, the quantity of light which was generated from the radioactive decay by the scintillation gel present in the wells is measured quantitatively. It is a direct measure of the degree of phosphorylation of the Akt substrate employed.
In order to measure the kinase activity of truncated Akt1 (Akt1ΔPH) as well as of native Akt1, in each case 100 ng of Akt were incubated, at 30° C. for 80 min, with 100 ng of histone 2B in a buffer comprising 50 mM Hepes, pH 7.5, 3 mM MgCl2 and 3 mM MnCl2, 3 μM sodium vanadate, 1 mM DTT, 1% DMSO, 100 nM ATP and 0.16 nM [^33P]ATP. After the reaction had been stopped with phosphoric acid and the wells had been washed with water, the incorporated […], in a Wallac Trilux measuring instrument, as a measure of the histone 2B phosphorylation. In this measuring instrument, the quantity of light which was generated from the radioactive decay by the scintillation gel which was present in the wells was measured quantitatively. It is a direct measure of the degree of the phosphorylation of the Akt substrate employed.
Commercially obtainable wild-type Akt1 protein (Upstate Biochemicals, Charlottsville, Va., USA), which was likewise expressed in SF9 cells using the baculovirus system and then purified, was also used (results of the activity measurement in FIG. 1a, left-hand column).
The activity of an Akt derivative, which was expressed using the present method and obtained as an active kinase derivative, was compared with the activity of a commercially obtainable Akt1 enzyme (Upstate, Charlottsville, Va., USA). The activity of the commercially obtainable enzyme was obtained by expressing the enzyme, which contained the PH domain, in the baculovirus system and then purifying it. The enzyme was subsequently incubated with PDK1 in the presence of phosphatidylinositol […] lipid vesicles in order to phosphorylate Akt1 at threonine 308. After that, the activated Akt enzyme was separated chromatographically in order to separate it off from the activating PDK1 kinase. The enzyme activities of the two kinases were measured as described in Ex. 4.

[1] = FIG. 1a, 100 ng Akt, 100 ng histone 2B, 30° C., 80 min, expressed in SF9 cells

B1: PDK1-activated Akt1ΔPH: truncated Akt1 protein (amino acids 107-481, GST tag) without PH domain, activated by coexpression with truncated PDK1 in SF9 cells (protein)
chain: ADGLKKQEEEEMDFRSGSPSDNSGAEEMEVSLAKPKHRVTMNEFEYLKLLGKGTFGKVILVKEKATGRYYAMKILKKEVIVAKDEVAHTLTENRVLQNSRHPFLTALKYSFQTHDRLCFVMEYANGGELFFHLSRERVFSEDRARFYGAEIVSALDYLHSEKNVVYRDLKLENLMLDKDGHIKITDFGLCKEGIKDGATMKTFCGTPEYLAPEVLEDNDYGRAVDWWGLGVVMYEMMCGRLPFYNQDHEKLFELILMEEIRFPRTLGPEAKSLLSGLLKKDPKQRLGGGSEDAKEIMQHRFFAGIVWQHVYEKKLSPPFKPQVTSETDTRYFDEEFTAQMITITPPDQDDSMECVDSERRPHFPQFSYSASGTA
modifications: phosphorylated at threonine 308 and serine 473, as the filing says of the active form
Ex. 5, measured as described in Ex. 4
  kinase activity compared with commercially obtainable native Akt1 activated by subsequent phosphorylation by PDK1 in the presence of lipid vesicles: at least the same activity
[1]
  kinase activity (histone 2B phosphorylation) compared with Akt1ΔPH not activated by coinfection with PDK1-encoding baculoviruses: markedly higher activity
  kinase activity (histone 2B phosphorylation) compared with Akt kinase derivative containing the PH domain with threonine 308 and serine 473 replaced with aspartic acid: markedly higher activity
FIG. 1b, Ex. 4b, measured as in Ex. 4a
  kinase activity (histone 2B phosphorylation) compared with commercially obtainable wild-type Akt1 not activated by coinfection with PDK1-encoding baculoviruses: markedly higher activity
